The values below come from patent US20260285966 (published 2026).

Holding throughout (assay): SPR
The target in test [1] is human IL-15+IL-15Ralpha complex (human).
Test [2] shares this target. The source holds these as a separate data set.
For test [3] the target is unchanged. The source holds these as a separate data set.
For test [4], the target named is T1, cynomolgus IL-15+IL-15Ralpha complex (Macaca fascicularis).
T1 chain 1: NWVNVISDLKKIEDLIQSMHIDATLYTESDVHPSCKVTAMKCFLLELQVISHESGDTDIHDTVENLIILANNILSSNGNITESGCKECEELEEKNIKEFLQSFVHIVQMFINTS
T1 chain 2: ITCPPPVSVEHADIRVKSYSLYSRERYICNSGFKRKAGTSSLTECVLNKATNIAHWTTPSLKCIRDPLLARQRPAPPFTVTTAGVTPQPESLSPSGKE

The target of test [5] is human IL-15+IL-15Ralpha complex (human). This is another data set of the same source.

Where two headings read alike, the source gives them in different places.

B1: R1A3 (antibody, V domains shown)
VH: EVQLVQSGAEVKKPGESLKISCKVSGYFFTTYWIGWVRQMPGKGLEYMGIIYPGDSDTRYSPSFQGQVTISADKSISTAYLQWSSLKASDTAMYYCARGGHWNAFDFWGQGTLVTVSS
VL: EIVLTQSPGTLSLSPGERATLSCRASQSVSSSYLAWYQQKPGQAPRLLIYGASRRATGIPDRFSGSGSGTDFTLTISRLEPEDFAVYYCQQFDASQTFGQGTKLEIS
In test [1], B1 yielded a Kd of 0.353 nM.

B2: CALY-002 (antibody, V domains shown)
VH: EVQLVESGGGLVQPGGSLRLSCAASEFTFSNYAMSWVRQAPGKGLEWVATISRGGDYTYYPDSVKGRFTISRDNSKNTLYLQMNSLRAEDTAVYYCARRVSMITGGWAMDYWGQGTLVTVSS
VL: DVVMTQSPLSLPVTLGQPASISCRSSQSIVDITGNTYLEWYQQRPGQSPRLLIYKVFNRFSGVPDRFSGSGSGTDFTLKISRVEAEDVGVYYCFQDSFVPYTFGQGTKLEIK
As to B2, the Kd in test [2] worked out at 0.201 nM; in test [3], 0.239 nM; in test [4], 0.148 nM; in test [5] it was 0.337 nM.
